Holding throughout (assay): TPM
In series [1] the test system is φC31 Int wt (Streptomyces coelicolor phage φC31). To be noted: TPM (LI Int): 20 mM Tris-HCl pH 8.0, 150 mM KCl, 5% glycerol, 5 mM MgCl2, 5 mM DTT, 2 mg/mL BSA, 22°C, 30 min, φC31 Int at 20 nM, its buffer not in the ….
Series [2] relates to φC31 Int ΔCC (Streptomyces coelicolor phage φC31). To be noted: TPM (LI Int): 20 mM Tris-HCl pH 8.0, 150 mM KCl, 5% glycerol, 5 mM MgCl2, 5 mM DTT, 2 mg/mL BSA, 22°C, 30 min, φC31 Int at 20 nM, its buffer not in the ….
In series [3] the test system is LI Int K362A (Listeria innocua prophage (phage LI)). To be noted: 200 or 400 nM Int, 5 mM Mg2+, TPM (LI Int): 20 mM Tris-HCl pH 8.0, 150 mM KCl, 5% glycerol, 5 mM MgCl2, 5 mM DTT, 2 mg/mL BSA, 22°C, 30 min, φC31 Int at 20 nM, its buffer not in the ….
For series [4], the system named is LI Int S10A (Listeria innocua prophage (phage LI)). To be noted: 5 mM Mg2+, TPM (LI Int): 20 mM Tris-HCl pH 8.0, 150 mM KCl, 5% glycerol, 5 mM MgCl2, 5 mM DTT, 2 mg/mL BSA, 22°C, 30 min, φC31 Int at 20 nM, its buffer not in the ….
The test system of series [5] is LI Int wt (Listeria innocua prophage (phage LI)). To be noted: 5 mM Mg2+, TPM (LI Int): 20 mM Tris-HCl pH 8.0, 150 mM KCl, 5% glycerol, 5 mM MgCl2, 5 mM DTT, 2 mg/mL BSA, 22°C, 30 min, φC31 Int at 20 nM, its buffer not in the ….
Series [6] relates to LI Int ΔCC (Listeria innocua prophage (phage LI)). To be noted: 200 or 400 nM Int, 5 mM Mg2+, TPM (LI Int): 20 mM Tris-HCl pH 8.0, 150 mM KCl, 5% glycerol, 5 mM MgCl2, 5 mM DTT, 2 mg/mL BSA, 22°C, 30 min, φC31 Int at 20 nM, its buffer not in the ….

Turning to φC31 attB-attP head-to-tail 1303 bp, the figures for the binding signal in series [1] (20 nM Int) and in series [2] (20 nM Int) were 80.4 % DNA bound and 30.6 % DNA bound, respectively.
On to φC31 attL-attR head-to-tail 1303 bp, for which the binding signal came out at 19.9 % DNA bound in series [1] and 21 % DNA bound in series [2].
LI attB-attP head-to-tail 1303 bp: the binding signal amounted to 54.9 % DNA bound in series [3], 76.4 % DNA bound in series [4] (100 nM Int), 81.1 % DNA bound in series [5] (100 nM Int) and 17.8 % DNA bound in series [6].
Regarding LI attL-attR head-to-tail 1303 bp, the binding signal in series [3] (no RDF) is 20.5 % DNA bound; in series [4] (200 nM Int, no RDF) it was 51.7 % DNA bound; in series [5] (200 nM Int, no RDF) it was 48.6 % DNA bound; in series [6] (no RDF), 16.1 % DNA bound.

The values are drawn from paper PMC10754689.
